Data: the supplement of paper PMC9112550, “Optimization of the antimicrobial peptide Bac7 by deep mutational scanning” (BMC Biology, 2022)

System: Escherichia coli TOP10
Assay: shrunken log2 fold change of peptide-encoding DNA abundance (4.5 h post-induction vs induction); higher = less antimicrobial activity (less host growth inhibition)
Conditions: time post-induction: 4.5 h; library: site-saturation at positions 5, 18, 19, 20
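Further: peptides expressed intracellularly from a pBAD plasmid library in pooled LB shake-flask culture, induced with 0.3% L-arabinose, DNA abundance read by NGS, three biological replicates, DESeq2 with apeglm shrinkage.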

Sequence | shrunken log2 fold change
RRIRCRPPRLPRPRPRPLNWPRP | 0.0486
RRIRVRPPRLPRPRPRPKENPRP | 0.184
RRIRRRPPRLPRPRPRPNSIPRP | -0.236
RRIRLRPPRLPRPRPRPRQPPRP | 0.111
RRIRTRPPRLPRPRPRPHAYPRP | -0.635
RRIRHRPPRLPRPRPRPAAGPRP | 0.323
RRIRSRPPRLPRPRPRPWKVPRP | -0.173
RRIRVRPPRLPRPRPRPHMPPRP | -0.725
RRIRVRPPRLPRPRPRPCVSPRP | -0.0282
RRIRSRPPRLPRPRPRPDQHPRP | -0.0484
RRIRIRPPRLPRPRPRPDNSPRP | -1.35
RRIRYRPPRLPRPRPRPHSWPRP | -0.69
RRIRERPPRLPRPRPRPYLKPRP | 0.0189
RRIRQRPPRLPRPRPRPLMCPRP | -0.0972
RRIRWRPPRLPRPRPRPGTLPRP | -0.0473
RRIRRRPPRLPRPRPRPCQYPRP | -0.137
RRIRARPPRLPRPRPRPPINPRP | -0.192
RRIRHRPPRLPRPRPRPSDMPRP | 2.66
RRIRMRPPRLPRPRPRPSLNPRP | -0.0544
RRIRHRPPRLPRPRPRPSDYPRP | -0.343
RRIRCRPPRLPRPRPRPWMKPRP | -0.0192
RRIRYRPPRLPRPRPRPWGMPRP | -0.364
RRIRCRPPRLPRPRPRPIMDPRP | -0.5
RRIRIRPPRLPRPRPRPCAHPRP | 0.0482
RRIRIRPPRLPRPRPRPPSFPRP | -0.213

Sequence | shrunken log2 fold change
RRIRLRPPRLPRPRPRPSGCPRP | 0.345
RRIRPRPPRLPRPRPRPTLAPRP | 0.332
RRIRIRPPRLPRPRPRPQPNPRP | -0.267
RRIRMRPPRLPRPRPRPYGCPRP | -0.341
RRIRLRPPRLPRPRPRPVIWPRP | 0.0724
RRIRFRPPRLPRPRPRPFMNPRP | -0.03
RRIRKRPPRLPRPRPRPVTGPRP | -0.0771
RRIRNRPPRLPRPRPRPSGYPRP | 0.00359
RRIRHRPPRLPRPRPRPSGCPRP | -0.162
RRIRWRPPRLPRPRPRPWRMPRP | -0.182
RRIRVRPPRLPRPRPRPATDPRP | 0.132
RRIRSRPPRLPRPRPRPWFDPRP | -0.271
RRIRCRPPRLPRPRPRPDFWPRP | 0.0753
RRIRKRPPRLPRPRPRPGWHPRP | 0.133
RRIRIRPPRLPRPRPRPLPTPRP | 0.0405
RRIRFRPPRLPRPRPRPSTTPRP | -0.362
RRIRNRPPRLPRPRPRPSSLPRP | -0.333
RRIRDRPPRLPRPRPRPDICPRP | -0.0418
RRIRKRPPRLPRPRPRPWQPPRP | 0.0588
RRIRKRPPRLPRPRPRPYGYPRP | -0.0282
RRIRLRPPRLPRPRPRPVPSPRP | 0.157
RRIRGRPPRLPRPRPRPLVHPRP | -0.0335
RRIRSRPPRLPRPRPRPCLVPRP | -0.379
RRIRYRPPRLPRPRPRPQQYPRP | -1
RRIRFRPPRLPRPRPRPSLMPRP | -0.6

Sequence | shrunken log2 fold change
RRIRGRPPRLPRPRPRPGPLPRP | 0.363
RRIRDRPPRLPRPRPRPRPIPRP | 0.429
RRIRERPPRLPRPRPRPDTMPRP | -0.336
RRIRVRPPRLPRPRPRPFDNPRP | -0.359
RRIRCRPPRLPRPRPRPDPQPRP | 0.17
RRIRERPPRLPRPRPRPYMKPRP | -0.438
RRIRRRPPRLPRPRPRPQRTPRP | 0.152
RRIRIRPPRLPRPRPRPARRPRP | 0.72
RRIRHRPPRLPRPRPRPMNQPRP | -0.221
RRIRIRPPRLPRPRPRPFWRPRP | -0.00848
RRIRSRPPRLPRPRPRPYNNPRP | -0.785
RRIRTRPPRLPRPRPRPMYEPRP | -0.375
RRIRARPPRLPRPRPRPIDWPRP | 0.0607
RRIRWRPPRLPRPRPRPSRMPRP | 0.0635
RRIRDRPPRLPRPRPRPTVEPRP | 0.766
RRIRIRPPRLPRPRPRPYYEPRP | -1.06
RRIRHRPPRLPRPRPRPGYYPRP | -0.318
RRIRNRPPRLPRPRPRPFTAPRP | 0.613
RRIRKRPPRLPRPRPRPLGCPRP | 0.659
RRIRERPPRLPRPRPRPTGIPRP | 0.0836
RRIRYRPPRLPRPRPRPAFIPRP | -0.24
RRIRTRPPRLPRPRPRPQCDPRP | -0.184
RRIRWRPPRLPRPRPRPKDRPRP | 0.159
RRIRARPPRLPRPRPRPQQAPRP | 0.308
RRIRIRPPRLPRPRPRPAEHPRP | 0.0405

Sequence | shrunken log2 fold change
RRIRTRPPRLPRPRPRPHEAPRP | -0.0062
RRIRPRPPRLPRPRPRPGFIPRP | -0.221
RRIRRRPPRLPRPRPRPGQLPRP | 0.0163
RRIRRRPPRLPRPRPRPMQSPRP | 0.0774
RRIRQRPPRLPRPRPRPWYRPRP | -0.49
RRIRDRPPRLPRPRPRPNSPPRP | -0.0573
RRIRTRPPRLPRPRPRPSICPRP | -0.899
RRIRNRPPRLPRPRPRPIALPRP | -0.0133
RRIRVRPPRLPRPRPRPKCTPRP | -0.0595
RRIRVRPPRLPRPRPRPGHRPRP | -0.0978
RRIRFRPPRLPRPRPRPDCTPRP | -0.0512
RRIRERPPRLPRPRPRPKYTPRP | -0.297
RRIRKRPPRLPRPRPRPYRPPRP | 0.0318
RRIRCRPPRLPRPRPRPKVNPRP | -0.542
RRIRKRPPRLPRPRPRPVLEPRP | 0.475
RRIRVRPPRLPRPRPRPMMIPRP | -0.131
RRIRMRPPRLPRPRPRPWEKPRP | 0.217
RRIRSRPPRLPRPRPRPGGDPRP | 0.514
RRIRARPPRLPRPRPRPDKNPRP | -0.00427
RRIRWRPPRLPRPRPRPTCEPRP | 0.752
RRIRERPPRLPRPRPRPVHYPRP | 0.198
RRIRMRPPRLPRPRPRPGPFPRP | 0.222
RRIRERPPRLPRPRPRPSPWPRP | -0.445
RRIRDRPPRLPRPRPRPSKSPRP | -0.223
RRIRSRPPRLPRPRPRPHCSPRP | -0.686

Sequence | shrunken log2 fold change
RRIRDRPPRLPRPRPRPEILPRP | -0.101
RRIRSRPPRLPRPRPRPDIDPRP | -0.15
RRIRCRPPRLPRPRPRPCQNPRP | -0.0888
RRIRFRPPRLPRPRPRPHVQPRP | -0.0901
RRIRWRPPRLPRPRPRPTTLPRP | -0.0826
RRIRKRPPRLPRPRPRPQGHPRP | 0.0492
RRIRQRPPRLPRPRPRPHPPPRP | 0.667
RRIRNRPPRLPRPRPRPLRVPRP | 0.896
RRIRHRPPRLPRPRPRPCAHPRP | 0.0671
RRIRPRPPRLPRPRPRPLFFPRP | 0.0106
RRIRRRPPRLPRPRPRPEQMPRP | 0.19
RRIRNRPPRLPRPRPRPYCGPRP | -0.352
RRIRYRPPRLPRPRPRPTKPPRP | -0.013
RRIRGRPPRLPRPRPRPNQKPRP | 0.0822
RRIRSRPPRLPRPRPRPQDWPRP | -0.0642
RRIRQRPPRLPRPRPRPYIGPRP | -0.681
RRIRGRPPRLPRPRPRPEERPRP | 0.55
RRIRLRPPRLPRPRPRPAPQPRP | 0.609
RRIRCRPPRLPRPRPRPRDRPRP | 0.731
RRIRTRPPRLPRPRPRPTNFPRP | -0.0921
RRIRDRPPRLPRPRPRPIAFPRP | 0.15
RRIRKRPPRLPRPRPRPGKVPRP | 0.248
RRIRYRPPRLPRPRPRPYYEPRP | -0.28
RRIRKRPPRLPRPRPRPFKEPRP | -0.0549
RRIRFRPPRLPRPRPRPRQIPRP | 0.0287
